According to PMC3644210 (Biochemical pharmacology, 2012):
Ends that are not written are not given here.

What was measured:
[1] = comparison value; source not explicitly stated; cited from earlier work
[2] = target: Kv1.1 (Homo sapiens, UniProt Q09470); format: cell-based
[3] = target: Kv1.5 (wildtype) (UniProt P22460)
[4] = target: Kv1.5 R487T (UniProt P22460)
[5] = target: Kv1.1 Y379V (UniProt Q09470)
[6] = target: Kv1.1 E353T (UniProt Q09470)
Sequence of Kv1.1 E353T (Q09470 whole entry E353T): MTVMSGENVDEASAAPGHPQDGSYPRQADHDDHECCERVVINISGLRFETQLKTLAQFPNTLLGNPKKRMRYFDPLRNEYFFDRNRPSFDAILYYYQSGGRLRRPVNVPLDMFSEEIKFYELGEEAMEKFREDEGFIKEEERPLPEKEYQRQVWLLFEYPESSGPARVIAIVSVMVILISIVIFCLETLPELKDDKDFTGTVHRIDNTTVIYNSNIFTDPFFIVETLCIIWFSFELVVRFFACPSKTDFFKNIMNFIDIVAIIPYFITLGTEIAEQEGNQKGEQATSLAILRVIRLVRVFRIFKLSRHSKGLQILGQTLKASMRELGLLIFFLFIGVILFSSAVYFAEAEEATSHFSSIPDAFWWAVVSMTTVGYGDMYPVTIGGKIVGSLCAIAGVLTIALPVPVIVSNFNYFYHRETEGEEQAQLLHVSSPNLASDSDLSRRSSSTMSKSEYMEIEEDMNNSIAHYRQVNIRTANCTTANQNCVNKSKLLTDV

Sequence of Kv1.1 (Q09470 whole entry): as the sequence (Q09470 whole entry E353T) above, with T353E counted along it
Sequence of Kv1.5 R487T (P22460 whole entry R487T): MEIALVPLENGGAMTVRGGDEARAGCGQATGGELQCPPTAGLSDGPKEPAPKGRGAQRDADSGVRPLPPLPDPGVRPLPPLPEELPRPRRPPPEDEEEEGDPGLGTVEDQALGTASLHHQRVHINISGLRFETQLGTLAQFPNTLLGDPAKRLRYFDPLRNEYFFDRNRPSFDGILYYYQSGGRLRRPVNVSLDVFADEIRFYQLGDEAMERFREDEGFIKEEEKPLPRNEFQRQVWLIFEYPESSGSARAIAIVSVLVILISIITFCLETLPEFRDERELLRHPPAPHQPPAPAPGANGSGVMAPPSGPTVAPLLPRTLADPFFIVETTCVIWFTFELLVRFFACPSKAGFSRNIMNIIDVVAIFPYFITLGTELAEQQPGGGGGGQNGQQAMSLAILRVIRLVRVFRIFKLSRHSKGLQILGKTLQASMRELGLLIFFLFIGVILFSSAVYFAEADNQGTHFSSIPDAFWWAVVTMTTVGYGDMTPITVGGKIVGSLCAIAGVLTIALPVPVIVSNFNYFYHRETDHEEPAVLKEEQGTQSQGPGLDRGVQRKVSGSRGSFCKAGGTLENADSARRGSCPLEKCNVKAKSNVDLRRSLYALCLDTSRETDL
Sequence of Kv1.5 (wildtype) (P22460 whole entry): as the sequence (P22460 whole entry R487T) above, with T487R counted along it
Sequence of Kv1.1 Y379V (Q09470 whole entry Y379V): as the sequence (Q09470 whole entry E353T) above, with T353E, Y379V counted along it

For “OcyC8: κ-KTx2 scorpion toxin from Opisthacanthus cayaporum (YDACVNACLEHHPNVRECEEACKNPVPP; UniProt P86110 43-70, looked up)”, the “pI of OcyC8” value [1] is listed as 4.92.

With `CC[N+](CC)(CC)CC` [TEA, Tetraethylammonium] the “reduction of the K+ current by TEA” value ([2]; 0.4 mM TEA, n = 6, 250-ms steps to +10 mV) was 55 ± 2% and the IC50 ([2]; read-out: IC50 of TEA on Kv1.1, Kv1.1, source of the IC50 not stated) was 400 µM.

In the case of SCKKECSGSRRTKKCMQKCNREHGH-NH2 (ends and bridges not checked) [Hl15-1-1 (Heterometrus laoticus toxin)], the percent inhibition of the K+ current by 30 μM Hl15-1-1 (whole-cell patch clamp) [3] is reported as 1%, the percent inhibition of the K+ current by 30 μM Hl15-1-1 (whole-cell patch clamp) [4] is reported as 26.3% and the percent inhibition of the K+ efflux by 30 μM Hl15-1-1 (whole-cell patch clamp) [5] is reported as 6.1%. For the same molecule, the percent inhibition of the K+ efflux by 30 μM Hl15-1-1 (whole-cell patch clamp) [6] was 32%.
